From patent publication US20240327543A1 (SHENGHE CHINA BIOPHARMACEUTICAL, published 2024)
Where two headings read alike, the source gives them in different places.

Legend:
Human-NKP30-His [1] = target: T1, Human-NKP30-His (human, UniProt O14931 19-135, limits assumed); test: ELISA, plate coated with Human-NKP30-His, detection with HRP goat anti-human IgG-Fc
T1 construct: Coated on the ELISA plate at 0.5 µg/mL; also called NKP30 protein; not shown: His tag
T1 sequence (looked up): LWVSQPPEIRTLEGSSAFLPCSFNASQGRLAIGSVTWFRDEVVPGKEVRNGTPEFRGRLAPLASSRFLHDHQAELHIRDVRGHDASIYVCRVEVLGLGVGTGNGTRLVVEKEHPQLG
Description: (§1) Human-NKP30-His was diluted to 0.5 μg/mL with PBS buffer at pH 7.4, added into the 96-well ELISA plate at 100 μL per well, coated overnight at 4° C., and blocked with 1% BSA blocking solution for 1 hour. The plate was washed 3 times with PBST, and the constructed antibodies were diluted to 10 μg/mL with 0.5% BSA sample diluent as the starting concentration, and then diluted by 3-fold gradient (11 gradients in total). A negative control (blank well and IgG1 isotype control) and a positive control were set, and the positive control was a NKP30 humanized antibody (sequence shown in SEQ ID No.32), and incubated at 37° C. for 1 h at 100 μL per well. […] The absorbance value of each well in the 96-well plate was determined by selecting the wavelength of 450 nm and the reference wavelength of 570 nm on a multifunctional enzyme marker, and the absorbance value (OD)=OD₄₅₀ₙₘ−OD₅₇₀ₙₘ. The logarithm of the concentration of the constructed antibodies were taken as the abscissa, and the measured absorbance value of each well was taken as the ordinate, and the Sigmoidaldose-response (Variable Slope) method (GraphPad Prism software, GraphPad Software, San Diego, California) was selected for nonlinear regression to obtain the binding curve of the target antibody to NKP30 protein.

Human-NKP30-His [2] = target: T1, Human-NKP30-His; test: as above; remark: listed apart in the source
Description: as §1

B1: NKP30 humanized antibody (SEQ ID No.32) (antibody, human IgG4 S228P, V domains shown)
VH: EVQLVESGGGLVQPGGSLRLSCAASGITFSRSVMGWFRQAPGKLRELVAGITSDDNTDYADSVKGRFTISRDNSKNTLYLQMNSLRAEDTAVYYCNILPDSRLGWGQGTLVTVSS
notes: It was detected with anti-human IgG-Fc; also called positive control; NKP30 monoclonal antibody
- EC50 (read off the curve) (Human-NKP30-His [1]): ~0.03 µg/mL
- EC50 (read off the curve) (Human-NKP30-His [2]): ~0.03 µg/mL
